Measured values published in article PMC6053526, “Arabidopsis WRKY50 and TGA Transcription Factors Synergistically Activate Expression of PR1” (Frontiers in Plant Science, 2018).
Each block holds one binder with its values, some of them ahead of it.

Target: AtWRKY50 full length fused to a half of yellow fluorescent protein (BiFC) (Arabidopsis, UniProt Q8VWQ5 1-173)
Test: cell-based or functional assay

Chain of AtWRKY50 full length fused to a half of yellow fluorescent protein (BiFC) (Q8VWQ5 whole entry, the tested form may be a part): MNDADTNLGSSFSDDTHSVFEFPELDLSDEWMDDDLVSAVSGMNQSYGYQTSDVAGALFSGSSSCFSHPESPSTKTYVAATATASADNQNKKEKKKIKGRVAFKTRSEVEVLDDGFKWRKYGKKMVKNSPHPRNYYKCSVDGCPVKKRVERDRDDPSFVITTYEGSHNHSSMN

- PR1::GUS reporter expression in Arabidopsis protoplasts co-transfected with 35S::AtWRKY50 and 35S::TGA2 (AtWRKY50 alone approximately 7-fold, TGA alone 2-fold): ≤ 14 fold
B1: TGA2 full length fused to a half of yellow fluorescent protein (BiFC) (natural protein, Arabidopsis, UniProt P43273 1-330, looked up)
chain: MADTSPRTDVSTDDDTDHPDLGSEGALVNTAASDSSDRSKGKMDQKTLRRLAQNREAARKSRLRKKAYVQQLENSRLKLTQLEQELQRARQQGVFISGTGDQAHSTGGNGALAFDAEHSRWLEEKNKQMNELRSALNAHAGDSELRIIVDGVMAHYEELFRIKSNAAKNDVFHLLSGMWKTPAERCFLWLGGFRSSELLKLLANQLEPMTERQLMGINNLQQTSQQAEDALSQGMESLQQSLADTLSSGTLGSSSSGNVASYMGQMAMAMGKLGTLEGFIRQADNLRLQTLQQMIRVLTTRQSARALLAIHDYFSRLRALSSLWLARPRE

- PR1::GUS reporter expression in Arabidopsis protoplasts co-transfected with 35S::AtWRKY50 and 35S::TGA5 (AtWRKY50 alone approximately 7-fold, TGA alone 2-fold): ≤ 14 fold
B2: TGA5 full length fused to a half of yellow fluorescent protein (BiFC) (natural protein, Arabidopsis, UniProt Q39163 1-330, looked up)
chain: MGDTSPRTSVSTDGDTDHNNLMFDEGHLGIGASDSSDRSKSKMDQKTLRRLAQNREAARKSRLRKKAYVQQLENSRLKLTQLEQELQRARQQGVFISSSGDQAHSTAGDGAMAFDVEYRRWQEDKNRQMKELSSAIDSHATDSELRIIVDGVIAHYEELYRIKGNAAKSDVFHLLSGMWKTPAERCFLWLGGFRSSELLKLIASQLEPLTEQQSLDINNLQQSSQQAEDALSQGMDNLQQSLADTLSSGTLGSSSSGNVASYMGQMAMAMGKLGTLEGFIRQADNLRLQTYQQMVRLLTTRQSARALLAVHNYTLRLRALSSLWLARPRE
